This is an account of results in PMC6193965.

The target of the assay is T1, mouse MILL2 extracellular domain (heavy chain) (mouse).
T1 sequence (Q8HWE5 whole entry, looked up): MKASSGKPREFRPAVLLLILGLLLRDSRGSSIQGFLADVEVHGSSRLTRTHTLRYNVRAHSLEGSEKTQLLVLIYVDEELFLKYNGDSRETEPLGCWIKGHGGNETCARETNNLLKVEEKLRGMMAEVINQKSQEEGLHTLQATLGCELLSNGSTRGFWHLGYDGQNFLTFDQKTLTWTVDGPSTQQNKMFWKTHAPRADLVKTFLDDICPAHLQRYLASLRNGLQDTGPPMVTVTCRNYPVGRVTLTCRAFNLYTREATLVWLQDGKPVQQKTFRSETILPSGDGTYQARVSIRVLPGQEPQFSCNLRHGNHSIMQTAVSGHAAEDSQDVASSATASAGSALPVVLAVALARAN
The assay is described as follows: SEC; MILL2 refolded by rapid dilution with 10 μM refolded β2m; complex purified on Superdex 75 and then by cation exchange (RESOURCE S); stoichiometry of the purified complex (Supplementary Fig. 1c). On the technique in general: In gel filtration, larger molecules generally elute earlier.

Turning to “mouse β2-microglobulin (from UniProt P01887 21-119) (natural protein)”, the stoichiometry N (commonly the number of molecules, sites or subunits per partner or assembly) came to 1.
